According to patent publication US7037492:

Molecular target: IL-1 receptors (on articular chondrocytes)
Assay: cell-based or functional assay

inhibition of gelatinase production by IL-1 treated chondrocytes, 5 U/ml IL-1, first culture's conditioned medium: 100%
inhibition of gelatinase production by IL-1 treated chondrocytes, 5 U/ml IL-1, second culture's conditioned medium: 41%
inhibition of gelatinase production by IL-1 treated chondrocytes, 10 U/ml IL-1, first culture's conditioned medium: 38%
inhibition of gelatinase production by IL-1 treated chondrocytes, 10 U/ml IL-1, second culture's conditioned medium: 18%
Substance: human interleukin-1 receptor antagonist protein (IRAP) (from UniProt P18510 26-177) (ligand)
